Source: paper PMC10388275 (Haematologica, 2023)

Target: rmSiglec1-mFc (mouse, UniProt Q62230 20-1639)
Experiment: SPR

rmSiglec1-mFc, sequence (Q62230 20-1639): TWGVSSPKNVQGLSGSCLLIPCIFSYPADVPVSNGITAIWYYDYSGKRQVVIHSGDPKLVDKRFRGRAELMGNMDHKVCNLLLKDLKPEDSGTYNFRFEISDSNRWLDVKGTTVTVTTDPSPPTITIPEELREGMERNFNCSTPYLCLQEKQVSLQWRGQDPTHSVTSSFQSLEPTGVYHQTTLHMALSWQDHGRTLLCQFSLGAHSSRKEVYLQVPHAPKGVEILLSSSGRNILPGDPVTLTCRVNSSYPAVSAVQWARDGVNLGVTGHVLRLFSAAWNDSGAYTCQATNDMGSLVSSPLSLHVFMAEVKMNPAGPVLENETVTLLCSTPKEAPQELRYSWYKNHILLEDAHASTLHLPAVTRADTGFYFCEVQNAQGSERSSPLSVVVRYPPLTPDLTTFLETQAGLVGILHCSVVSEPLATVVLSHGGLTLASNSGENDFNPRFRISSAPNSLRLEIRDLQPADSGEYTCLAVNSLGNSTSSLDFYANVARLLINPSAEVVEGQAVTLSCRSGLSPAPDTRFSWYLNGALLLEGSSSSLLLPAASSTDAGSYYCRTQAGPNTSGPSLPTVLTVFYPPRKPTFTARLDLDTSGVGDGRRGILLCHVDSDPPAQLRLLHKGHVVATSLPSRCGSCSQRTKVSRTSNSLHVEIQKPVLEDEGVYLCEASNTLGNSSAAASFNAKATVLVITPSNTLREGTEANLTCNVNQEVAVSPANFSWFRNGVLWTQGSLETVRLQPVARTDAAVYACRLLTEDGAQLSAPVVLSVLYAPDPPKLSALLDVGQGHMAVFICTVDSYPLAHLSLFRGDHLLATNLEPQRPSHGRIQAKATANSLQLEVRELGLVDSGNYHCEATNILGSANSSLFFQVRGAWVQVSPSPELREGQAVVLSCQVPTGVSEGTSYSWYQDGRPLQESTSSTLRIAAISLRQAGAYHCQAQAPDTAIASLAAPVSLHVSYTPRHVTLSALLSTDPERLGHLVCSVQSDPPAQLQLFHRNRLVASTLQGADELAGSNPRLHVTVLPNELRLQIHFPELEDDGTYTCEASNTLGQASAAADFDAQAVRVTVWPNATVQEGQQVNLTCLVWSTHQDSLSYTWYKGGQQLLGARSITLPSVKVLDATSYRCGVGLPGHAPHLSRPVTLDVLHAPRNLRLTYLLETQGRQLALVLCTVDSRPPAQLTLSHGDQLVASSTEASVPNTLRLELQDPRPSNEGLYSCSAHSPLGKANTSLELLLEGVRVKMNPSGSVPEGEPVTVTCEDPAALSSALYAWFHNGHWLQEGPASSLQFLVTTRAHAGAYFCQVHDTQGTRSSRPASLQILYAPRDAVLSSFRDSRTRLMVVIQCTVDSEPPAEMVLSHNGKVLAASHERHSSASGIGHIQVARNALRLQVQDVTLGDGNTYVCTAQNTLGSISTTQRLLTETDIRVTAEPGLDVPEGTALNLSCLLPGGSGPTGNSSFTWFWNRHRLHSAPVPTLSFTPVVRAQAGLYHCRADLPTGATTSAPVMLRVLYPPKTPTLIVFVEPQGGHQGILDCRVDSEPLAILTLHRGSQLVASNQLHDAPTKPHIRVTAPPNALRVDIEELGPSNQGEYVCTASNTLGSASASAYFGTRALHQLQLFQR

B1: rmCD43-hFc (Fc fusion, mouse, UniProt P15702 20-248, looked up)
chain: DSLQRTTMLPSTPHITAPSTSEAQNASPSVSVGSGTVDSKETISPWGQTTIPVSLTPLETTELSSLETSAGASMSTPVPEPTASQEVSSKTSALLPEPSNVASDPPVTAANPVTDGPAANPVTDGTAASTSISKGTSAPPTTVTTSSNETSGPSVATTVSSKTSGPPVTTATGSLGPSSEMHGLPATTATSSVESSSVARGTSVSSRKTSTTSTQDPITTRSPSQESSG
Work on B1 yielded a Kd of 0.107 µM.
